Molecular target: T1, VvWRKY5-HIS (Vitis vinifera, UniProt A0ABY9BGE3 8-330)
T1 sequence: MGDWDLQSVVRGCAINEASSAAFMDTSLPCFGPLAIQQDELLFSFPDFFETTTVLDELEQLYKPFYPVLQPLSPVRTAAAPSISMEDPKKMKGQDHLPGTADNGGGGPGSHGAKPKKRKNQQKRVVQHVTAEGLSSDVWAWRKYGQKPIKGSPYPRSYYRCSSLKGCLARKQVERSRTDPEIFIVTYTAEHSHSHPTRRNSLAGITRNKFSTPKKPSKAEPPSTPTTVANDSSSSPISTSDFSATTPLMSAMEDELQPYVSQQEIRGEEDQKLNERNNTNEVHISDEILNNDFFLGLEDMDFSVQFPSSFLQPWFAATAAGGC
Test: EMSA; unlabeled cold probe competitor 100x/200x; LightShift Chemiluminescent EMSA Kit (Beyotime); buffer, salt, pH and temperature not stated
Conditions: protein: recombinant; tags: His (pET-32a(+) fusion); blunt

B1: VvJAZ2 W-box probe (dsDNA)
DNA 1: TAAATCCTCACATCGGGTCAAGGATCGAGTATGC
DNA 2: GCATACTCGATCCTTGACCCGATGTGAGGATTTA
binding result: binds

B2: VvMYC2 W-box probe (dsDNA)
DNA 1: TAGGGTGGGGATTTGACCTGGGTCTGGAGATTCG
DNA 2: CGAATCTCCAGACCCAGGTCAAATCCCCACCCTA
binding result: binds
